According to patent US20100279930A1 (published 2010):
Where two headings read alike, the source gives them in different places.

Key:
human Y4 receptor [1] = target: T1, human Y4 receptor (human, UniProt P50391 1-375); experiment: 125I-PP displacement
human Y4 receptor [2] = target: T1, human Y4 receptor; experiment: 125I-PP displacement; remark: listed apart in the source

T1 sequence (P50391 whole entry): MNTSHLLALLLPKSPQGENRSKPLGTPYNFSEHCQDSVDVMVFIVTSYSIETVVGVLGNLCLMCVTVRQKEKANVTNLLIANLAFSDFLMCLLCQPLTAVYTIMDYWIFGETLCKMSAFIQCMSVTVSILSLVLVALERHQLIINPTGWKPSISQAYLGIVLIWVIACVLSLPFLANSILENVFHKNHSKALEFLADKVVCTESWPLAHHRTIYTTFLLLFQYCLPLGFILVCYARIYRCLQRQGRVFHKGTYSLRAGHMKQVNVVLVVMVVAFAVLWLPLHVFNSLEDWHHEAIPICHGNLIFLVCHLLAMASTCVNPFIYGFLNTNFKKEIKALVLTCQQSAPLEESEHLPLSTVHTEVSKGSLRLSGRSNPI

Binder	IC50 (human Y4 receptor [1]) [nM]	IC50 (human Y4 receptor [2]) [nM]
PAPLEPVYPGDNATPEQIAKYAADLRRYINKLTRPRY [4057144]	0.083	–
AAPLEPEYPGDDATPQQMAHYAAELRRYINKLTRPRY [4057141]	0.114	–
HAPLEPEYPGDDATPQQMARYAAELRRYINKLTRPRY [4057137]	0.092	–
PAPLEPHYPGDNATPEQMAKYAADLRRYINKLTRPRY [4057231]	0.049	–
HPLEPEYPGDDATPQQMARYAAELRRYINKLTRPRY [4057275]	0.162	–
PAPLEPVYPGDNATPEQMARYAAELRRYINKLTRPRY [4057162]	0.06	–
AKPLEPEYPGDDATPQQMARYAAELRRYINKLTRPRY [4057280]	0.049	–
PAPLEPTYPGDNATPEQMAKYAADLRRYINKLTRPRY [4057229]	0.143	–
PAPLEPVYPGDDATPQQMAKYAADLRRYINKLTRPRY [4057273]	0.061	–
PAPLEPTYPGDDATPQEMAKYAAELRRYINKLTRPRY [4057444]	0.116	–
PAPLEPTYPGDNATPEQLAKYAAELRRYINKLTRPRY [4057440]	0.089	–
PAPLEPVYPGDNATPEQMARYAADLRRYINKLTRPRY [4057335]	0.08	–
GAPLEPEYPGDDATPQQMARYAAELRRYINKLTRPRY [4057136]	0.064	–
PLEPEYPGDDATPQQMAHYAAELRRYINKLTRPRY [4057138]	0.086	–
PLEPVYPGDNATPEQMARYAAELRRYINKLTRPRY [4057159]	0.053	–
PAPLEPVYPGDNATPEQMAKYAAELRRYINKLTRPRY [4057151]	0.056	–
PAPLEPTYPGDNATPEEMAKYAAELRRYINKLTRPRY [4057446]	0.109	–
PAPLEPFYPGDNATPEQMAKYAADLRRYINKLTRPRY [4057233]	0.13	–
GPLEPEYPGDDATPQQMARYAAELRRYINKLTRPRY [4057276]	0.085	–
GAPLEPEAPGDNATPEQMAKYYSELRRYINKLTRPRY [4060691]	–	0.153

Binder	IC50 (human Y4 receptor [1]) [nM]	IC50 (human Y4 receptor [2]) [nM]
PAPLEPKYPGDNATPEQMAKYYSELRRYIDRLTRPRY [4060603]	–	0.102
GAPLEPTYPGDDATPEQLAKYYSELRRYINHLTRPRY [4060306]	–	0.098
GAPLEPTYPGDNATPEQKAKYYSELRRYINKLTRPRY [4060279]	–	0.067
AAPLEPTYPGDNATPEQKAKYAAELRRYIDKLTRPRY [4061082]	–	0.158
PAPLEPVYPGDNATPEQVAKYAADLRRYINKLTRPRY [4057146]	0.08	–
GAPLEPEYPGDNATPEQMAKYAAALRRYIDKLTRPRY [4060896]	–	0.114
GAPLEPTYPGDNATPEQLAKYYSELRRYINRLTRPRY [4060276]	–	0.073
GAPLEPEYPGDNATPEQKAKYAAALRRYINRLTRPRY [4060301]	–	0.036
DAPLEPEYPGDDATPQQMARYAAELRRYINKLTRPRY [4057135]	0.097	–
AAPLEPTYPGDNATPEQMARYAAALRRYIDKLTRPRY [4060695]	–	0.091
AAPLEPEYPGDDATPQQMAKYAADLRRYINKLTRPRY [4057259]	0.083	–
PAPLEPVYPGDNATPEQKAKYAAELRRYIDHLTRPRY [4061087]	–	0.218
DPLEPEYPGDDATPQQMARYAAELRRYINKLTRPRY [4057277]	0.093	–
HAPLEPVYPGDNATPEQMARYAADLRRYINKLTRPRY [4057338]	0.078	–
AAPLEPEYPGDDATPQQKARYAAELRRYINKLTRPRY [4060686]	–	0.055
PLEPVYPGDNATPEQMAKYAADLRRYINKLTRPRY [4057261]	0.056	–
GAPLEPEYPGDDATPEQKARYAAALRRYINKLTRPRY [4060311]	–	0.099
GAPLEPTYPGDNATPEELAKYYSELRRYINKLTRPRY [4060315]	–	0.097
PAPLEPTYPGDDATPEEMAKYAAELRRYINKLTRPRY [4057445]	0.107	–
PAPLEPEYPGDNATPEQMAKYAADLRRYINKLTRPRY [4057232]	0.128	–

Binder	IC50 (human Y4 receptor [1]) [nM]	IC50 (human Y4 receptor [2]) [nM]
GAPLEPTYPGDNATPEQLAKYYSELRRYIDKLTRPRY [4060606]	–	0.131
GAPLEPVYPGDNATPEQMARYAAELRRYINKLTRPRY [4057163]	0.088	–
GAPLEPVYPGDNATPEQMARYYSELRRYIDKLTRPRY [4060604]	–	0.121
PAPLEPKAPGDNATPEQMAKYYSELRRYIDKLTRPRY [4060680]	–	0.109
YAPLEPEAPGDDATPQQKARYAAELRRYINKLTRPRY [4060681]	–	0.136
PAPLEPTYPGDDATPEQLAKYYSELRRYINKLTRPRY [4060314]	–	0.084
PAPLEPHYPGDNATPEEMAKYYSELRRYIDKLTRPRY [4060895]	–	0.121
PAPLEPEYPGDDATPQQKARYAAELRRYINKLTRPRY [4060685]	–	0.065
AAPLEPTAPGDNATPEQMARYAAALRRYINKLTRPRY [4060694]	–	0.079
PAPLEPTYPGDNATPEQKAKYAAELRRYIDKLTRPRY [4061081]	–	0.21
AAPLEPKYPGDNATPEQLAKYAAELRRYIDKLTRPRY [4060696]	–	0.151
GAPLEPEYPGDDATPEQKARYAAALRRYINHLTRPRY [4060312]	–	0.101
GAPLEPEYPGDNATPEQKAKYAAALRRYIDKLTRPRY [4060601]	–	0.088
GAPLEPEYPGDDATPQQKARYAAELRRYINKLTRPRY [4060684]	–	0.076
PLEPVYPGDNATPEQLAKYAAELRRYIDKLTRPRY [4060899]	–	0.153
GAPLEPTYPGDDATPEQLAKYAAELRRYINHLTRPRY [4060308]	–	0.117
PAPLEPHYPGDNATPEEMAKYAAELRRYIDKLTRPRY [4060687]	–	0.171
GAPLEPTYPGDNATPEQKAKYAAELRRYIDKLTRPRY [4061080]	–	0.105
GAPLEPTYPGDDATPEQLAKYYSELRRYINKLTRPRY [4060313]	–	0.097
PAPLEPTYPGDNATPEELAKYYSELRRYINKLTRPRY [4060316]	–	0.101
